Laboratory results published in the Immune Epitope Database (IEDB).

Molecular target: HLA-A*02:06
Assay: IEDB peptide-MHC binding, cellular MHC/competitive/fluorescence; ≥ and ≤ were set here for values at or beyond the usual limits of such assays
Conditions: source organism: Influenza A virus

Sequence | IC50
NVTVTHSV | 18.6 µM

Same assay, conditions: source organism: Mammarenavirus choriomeningitidis

Sequence | IC50
HNASDFYGL | 21.8 µM

Same assay, conditions: source organism: Vaccinia virus WR

Sequence | IC50
ATCALVSDCA | 9.14 µM
AVYFKAKWLT | 8.71 µM
CTEETKRNI | ≥ 70 µM
CVDIFTEGKI | 20.9 µM
CVKYLLDNDI | 7.58 µM
DAIKSNNHLT | ≥ 70 µM
DTCGASINIT | ≥ 70 µM
DTDIVNNFI | 15.7 µM
DTEFINKFL | ≥ 70 µM
DTIESAKTKI | ≥ 70 µM
DTSPTKRCRL | 44.6 µM
DVEKRILNTI | 10.8 µM
DVIKSISSI | 15 µM
DVNSVQFSI | 16.9 µM
DVSVSVGTGI | 22.2 µM
EAFETQSGA | ≥ 50 µM
EALYYVHSL | 14.8 µM
EIVKNIREGT | 60.7 µM
ELPVKTDIV | 11.5 µM
ETAIRAGYSI | 17.8 µM
ETFPNVHEHI | ≥ 70 µM
ETIQKDINI | 34.9 µM
ETKRNIARHL | ≥ 70 µM
ETNIGCAVNT | ≥ 70 µM
ETVKMGAFM | 40.2 µM
EVIGLTTHCT | 12.2 µM
FTELENKKV | 6.84 µM

Sequence | IC50
GLESIEQNLT | ≥ 70 µM
HTKFWISDNT | ≥ 70 µM
IAIFNNRNL | 13.5 µM
IAVSVYGAIT | 14.4 µM
LIYYQNEVT | 8.51 µM
LTHGADPNA | 29.4 µM
LTSNCTRTT | 40.7 µM
MAFILGIII | 32.5 µM
NACDKHNKT | 18.6 µM
NIREGTHVLL | 34.6 µM
NITHTNITTL | 8.17 µM
NTGMGMYYPT | 11.3 µM
NTLIQYRQQL | 20.9 µM
NVQSLIKFI | 10.5 µM
NVTGFMEEEI | 17.6 µM
RASTTENAA | 12.1 µM
SARALKAYFT | 25.7 µM
STSNVITDQT | 10.8 µM
SVDFVVNGHT | ≥ 70 µM
TAATKRYPGV | 5.57 µM
TAEQLSKYV | 23.9 µM
TAFFNTCKPT | 33 µM
TAIRAGYSI | 7.69 µM
TINALVYFST | 62.7 µM
TTNNLLEQLI | 13.1 µM
TVDFTDCRTI | 10.6 µM
TVKNVDIIDL | 12.4 µM

Molecular target: HLA-A*02:02
Assay: as above
Conditions: source organism: Influenza A virus

Sequence | IC50
NVTVTHSV | 60.5 µM

Same assay, conditions: source organism: Mammarenavirus choriomeningitidis

Sequence | IC50
HNASDFYGL | 6.51 µM

Same assay, conditions: source organism: Vaccinia virus WR

Sequence | IC50
ATCALVSDCA | 34.7 µM
AVYFKAKWLT | 27.2 µM
CTEETKRNI | ≥ 70 µM
CVDIFTEGKI | ≥ 70 µM
CVKYLLDNDI | 31.8 µM
DAIKSNNHLT | 27.4 µM
DTCGASINIT | 23.6 µM
DTDIVNNFI | 9.32 µM
DTEFINKFL | 7.42 µM
DTIESAKTKI | 47.9 µM
DTSPTKRCRL | 12.2 µM
DVEKRILNTI | 21 µM
DVIKSISSI | 63.8 µM
DVNSVQFSI | 10.4 µM
DVSVSVGTGI | 17.9 µM
EAFETQSGA | ≥ 70 µM
EALYYVHSL | 14.2 µM
EIVKNIREGT | 28.5 µM
ELPVKTDIV | 23 µM
ETAIRAGYSI | 25.8 µM
ETFPNVHEHI | 8.02 µM
ETIQKDINI | 36.6 µM

Sequence | IC50
ETKRNIARHL | 50 µM
ETNIGCAVNT | ≥ 70 µM
ETVKMGAFM | 15 µM
EVIGLTTHCT | 10.5 µM
FTELENKKV | 19.6 µM
GLESIEQNLT | 7.02 µM
HTKFWISDNT | 21.5 µM
IAIFNNRNL | 9.23 µM
IAVSVYGAIT | 7.89 µM
KTNTKHCPKI | 33.8 µM
KTPVIVVPVI | 9.09 µM
KVEKYLPEVI | 12.1 µM
KVIKLVKSLV | 14.3 µM
LIYYQNEVT | 14 µM
LTHGADPNA | 19.4 µM
LTSNCTRTT | ≥ 70 µM
MAFILGIII | 9.54 µM
NACDKHNKT | 17.9 µM
NIREGTHVLL | 8.88 µM
NITHTNITTL | 10.4 µM
NTGMGMYYPT | 23.4 µM
NTLIQYRQQL | 6.37 µM

Sequence | IC50
NVQSLIKFI | 12.9 µM
NVTGFMEEEI | 10.3 µM
PIPYSRVNHA | 11.7 µM
PVVYHDDDNT | 9.14 µM
RASTTENAA | 26.7 µM
RQLTSNVDV | 50.8 µM
RQQLEDIFM | 5.73 µM
SARALKAYFT | 21.6 µM
STSNVITDQT | 53.6 µM
SVDFVVNGHT | ≥ 70 µM
TAATKRYPGV | 25.5 µM
TAEQLSKYV | 5.22 µM
TAFFNTCKPT | 31.6 µM
TAIRAGYSI | 14.5 µM
TINALVYFST | 14.1 µM
TTNNLLEQLI | 8.88 µM
TVDFTDCRTI | 31.8 µM
TVKNVDIIDL | 31.3 µM
VIVPDIKLDA | 33.5 µM
VTPEYIKDL | 10.4 µM
YVLFVKKML | 31.1 µM

Molecular target: HLA-A*68:02
Assay: as above
Conditions: source organism: Vaccinia virus WR

Sequence | IC50
KTNTKHCPKI | 20 µM
KTPVIVVPVI | 36.5 µM
KVEKYLPEVI | ≥ 70 µM
KVIKLVKSLV | 16.2 µM
PIPYSRVNHA | 48.3 µM
PVVYHDDDNT | 11.4 µM
RQLTSNVDV | 18.8 µM
RQQLEDIFM | ≥ 70 µM
VIVPDIKLDA | ≥ 70 µM
VTPEYIKDL | ≥ 70 µM
YVLFVKKML | 11.4 µM

Molecular target: HLA-A*02:03
Assay: as above
Conditions: source organism: Influenza A virus

Sequence | IC50
NVTVTHSV | 14.6 µM

Same assay, conditions: source organism: Mammarenavirus choriomeningitidis

Sequence | IC50
HNASDFYGL | ≥ 70 µM

Same assay, conditions: source organism: Vaccinia virus WR

Sequence | IC50
ATCALVSDCA | 23.4 µM
AVYFKAKWLT | 8.93 µM
CTEETKRNI | ≥ 70 µM
CVDIFTEGKI | 17.5 µM
CVKYLLDNDI | 5.67 µM
DAIKSNNHLT | 17.9 µM
DTCGASINIT | ≥ 70 µM
DTDIVNNFI | 19.4 µM
DTEFINKFL | 42.7 µM
DTIESAKTKI | 50.5 µM
DTSPTKRCRL | 37.1 µM
DVEKRILNTI | 12.6 µM
DVIKSISSI | 7.52 µM
DVNSVQFSI | 16.2 µM
DVSVSVGTGI | 5.83 µM
EAFETQSGA | ≥ 70 µM

Sequence | IC50
EALYYVHSL | 5.77 µM
EIVKNIREGT | 8.53 µM
ELPVKTDIV | 8.06 µM
ETAIRAGYSI | 29.3 µM
ETFPNVHEHI | 6.62 µM
ETIQKDINI | 50.8 µM
ETKRNIARHL | 12.4 µM
ETNIGCAVNT | 37 µM
ETVKMGAFM | 7.43 µM
EVIGLTTHCT | 14.9 µM
FTELENKKV | 8.08 µM
GLESIEQNLT | 61.3 µM
HTKFWISDNT | 60.2 µM
IAIFNNRNL | 10.5 µM
IAVSVYGAIT | 9.24 µM
